US20240285573A1, “PHARMACEUTICAL COMPOSITION FOR PREVENTING OR TREATING DIABETIC EYE DISEASE COMPRISING SGLT-2 INHIBITOR” (priority 2021, published 2024)

Tested on: diabetic retinopathy animal model
Assay: Retinal fluorescein intensity (fundus imaging) in streptozotocin-induced diabetic retinopathy animal model
Assay type: in vivo, Brown Norway rats (BN/SsN Slc)
Settings: relative to normal control G1 = 100%, STZ-induced rats, right eye, intravitreal, non-vascular regions of retina
Description: Brown Norway rats (BN/SsN Slc) were used. […] Streptozotocin (STZ) was administered to animals determined to be healthy during the acclimation period, and blood sugar levels were measured on day 7 of administration. […] Streptozotocin was intravenously administered once at a dose of 60 mg/kg on the day of induction. G1 is a normal control in which diabetic retinopathy was not induced, G2 is a control in which diabetic retinopathy was induced and to which the vehicle of Comparative Example 1 was administered, and G3 and G4 are groups to which ranibizumab of Comparative Example 2 was administered as a positive control material, and G5 to G9 are groups to which the SGLT-2 inhibitors according to Examples 1 to 5 were administered, respectively. For intravitreal injection, animals were anesthetized, and a syringe with a 31-gauge needle was used to perform intravitreal injections into the right eye of the respective animals. The test material was administered as a single dose on the day of administration. The injection volume was either 1 μL/eye or 5 μL/eye. […] Retinal examination and efficacy were assessed using retinal fluorescent fundus photographs. […] The relative levels (%) of the measured values for each individual were analyzed, with the average value of the normal control group (G1) as the reference (100%), and comparisons were made between the groups. […]

B1: Ranibizumab (antibody, chains of the INN, looked up, V domains shown)
VH: EVQLVESGGGLVQPGGSLRLSCAASGYDFTHYGMNWVRQAPGKGLEWVGWINTYTGEPTYAADFKRRFTFSLDTSKSTAYLQMNSLRAEDTAVYYCAKYPYYYGTSHWYFDVWGQGTLVTVSS
VL: DIQLTQSPSSLSASVGDRVTITCSASQDISNYLNWYQQKPGKAPKVLIYFTSSLHSGVPSRFSGSGSGTDFTLTISSLQPEDFATYYCQQYSTVPWTFGQGTKVEIK
notes: LUCENTIS® purchased and administered as a positive control; anti-VEGF monoclonal antibody therapy
With B1 the “Fluorescence intensity on 21st day” value (10 μg/eye, 1 μL/eye, once (G4)) was 128.359% and the “Fluorescence intensity on 21st day” value (50 μg/eye, 5 μL/eye, once (G3)) was 125.586 ± 14.799 %.
